{
  "source": "patent US20210079040",
  "tested_on": "T1, Link N (human Link N, DHLSDNYTLDHDRAIH)",
  "T1 sequence": "DHLSDNYTLDHDRAIH",
  "data": [
    {"molecule": "ADAMTS 5", "values": [
      {"measurement": "peak area intensity of the 1922 Da Link 1-16 peptide (mass spectrometry) after proteinase digest", "result": "un-affected by MMPs 3, 7, 12, 13, ADAMTS 4,5, HTRA1, and cathepsins B, and L"}
    ]},
    {"molecule": "HTRA1", "values": [
      {"measurement": "peak area intensity of the 1922 Da Link 1-16 peptide (mass spectrometry) after proteinase digest", "result": "un-affected by MMPs 3, 7, 12, 13, ADAMTS 4,5, HTRA1, and cathepsins B, and L"}
    ]},
    {"molecule": "MMP 3", "values": [
      {"measurement": "peak area intensity of the 1922 Da Link 1-16 peptide (mass spectrometry) after proteinase digest", "result": "un-affected by MMPs 3, 7, 12, 13, ADAMTS 4,5, HTRA1, and cathepsins B, and L"}
    ]},
    {"molecule": "MMP 12", "values": [
      {"measurement": "peak area intensity of the 1922 Da Link 1-16 peptide (mass spectrometry) after proteinase digest", "result": "un-affected by MMPs 3, 7, 12, 13, ADAMTS 4,5, HTRA1, and cathepsins B, and L"}
    ]},
    {"molecule": "MMP 13", "values": [
      {"measurement": "peak area intensity of the 1922 Da Link 1-16 peptide (mass spectrometry) after proteinase digest", "result": "un-affected by MMPs 3, 7, 12, 13, ADAMTS 4,5, HTRA1, and cathepsins B, and L"}
    ]},
    {"molecule": "cathepsin B", "values": [
      {"measurement": "peak area intensity of the 1922 Da Link 1-16 peptide (mass spectrometry) after proteinase digest", "result": "un-affected by MMPs 3, 7, 12, 13, ADAMTS 4,5, HTRA1, and cathepsins B, and L"}
    ]},
    {"molecule": "cathepsin L", "values": [
      {"measurement": "peak area intensity of the 1922 Da Link 1-16 peptide (mass spectrometry) after proteinase digest", "result": "un-affected by MMPs 3, 7, 12, 13, ADAMTS 4,5, HTRA1, and cathepsins B, and L"}
    ]},
    {"molecule": "MMP 7 (enzyme, UniProt P09237 95-267, looked up, species assumed) Matrilysin: YSLFPNSPKWTSKVVTYRIVSYTRDLPHITVDRLVSKALNMWGKEIPLHFRKVVWGTADIMIGFARGAHGDSYPFDGPGNTLAHAFAPGTGLGGDAHFDEDERWTDGSSLGINFLYAATHELGHSLGMGHSSDPNAVMYPTYGNGDPQNFKLSQDDIKGIQKLYGKRSNSRKK", "values": [
      {"measurement": "peak area intensity of the 1922 Da Link 1-16 peptide (mass spectrometry) after proteinase digest", "result": "un-affected by MMPs 3, 7, 12, 13, ADAMTS 4,5, HTRA1, and cathepsins B, and L"}
    ]},
    {"molecule": "cathepsin K (enzyme, UniProt P43235 115-329, looked up, species assumed) Cathepsin K: APDSVDYRKKGYVTPVKNQGQCGSCWAFSSVGALEGQLKKKTGKLLNLSPQNLVDCVSENDGCGGGYMTNAFQYVQKNRGIDSEDAYPYVGQEESCMYNPTGKAAKCRGYREIPEGNEKALKRAVARVGPVSVAIDASLTSFQFYSKGVYYDESCNSDNLNHAVLAVGYGIQKGNKHWIIKNSWGENWGNKGYILMARNKNNACGIANLASFPKM", "values": [
      {"measurement": "peak area intensity of the 1922 Da Link 1-16 peptide (mass spectrometry) after proteinase digest", "result": "significantly diminished already after 30 minutes and was hardly detectable at 2 and 24 hours incubation with cathepsin K"}
    ]},
    {"molecule": "ADAMTS 4 (enzyme, UniProt O75173 213-837, looked up, species assumed) A disintegrin and metalloproteinase with thrombospondin motifs 4: FASLSRFVETLVVADDKMAAFHGAGLKRYLLTVMAAAAKAFKHPSIRNPVSLVVTRLVILGSGEEGPQVGPSAAQTLRSFCAWQRGLNTPEDSDPDHFDTAILFTRQDLCGVSTCDTLGMADVGTVCDPARSCAIVEDDGLQSAFTAAHELGHVFNMLHDNSKPCISLNGPLSTSRHVMAPVMAHVDPEEPWSPCSARFITDFLDNGYGHCLLDKPEAPLHLPVTFPGKDYDADRQCQLTFGPDSRHCPQLPPPCAALWCSGHLNGHAMCQTKHSPWADGTPCGPAQACMGGRCLHMDQLQDFNIPQAGGWGPWGPWGDCSRTCGGGVQFSSRDCTRPVPRNGGKYCEGRRTRFRSCNTEDCPTGSALTFREEQCAAYNHRTDLFKSFPGPMDWVPRYTGVAPQDQCKLTCQAQALGYYYVLEPRVVDGTPCSPDSSSVCVQGRCIHAGCDRIIGSKKKFDKCMVCGGDGSGCSKQSGSFRKFRYGYNNVVTIPAGATHILVRQQGNPGHRSIYLALKLPDGSYALNGEYTLMPSPTDVVLPGAVSLRYSGATAASETLSGHGPLAQPLTLQVLVAGNPQDTRLRYSFFVPRPTPSTPRPTPQDWLHRRAQILEILRRRPWAGRK", "values": [
      {"measurement": "peak area intensity of the 1922 Da Link 1-16 peptide (mass spectrometry) after proteinase digest", "result": "un-affected by MMPs 3, 7, 12, 13, ADAMTS 4,5, HTRA1, and cathepsins B, and L"}
    ]}
  ]
}
